# Results reported in PMC5563082.
# Legend:
# [1] = target: human NL1 cholinesterase domain lacking splice inserts (hNL1(–A–B)_(ECTO); Gln46-Asp635), crystallisation sample (human); test: crystal structure; Endo F1-treated hNL1(–A–B)_(ECTO)–cMDGA1_(ECTO) complex, mixed 1:1.25, 0.1M Na.HEPES pH 7.0, 7.5% PEG8000; 3.30 Å
# [2] = target: human NL1(–A–B)_(ECTO), biotinylated and immobilised for SPR (human); test: SPR; biotinylated NL_(ECTO)-Avitag variants captured from dialysed conditioned medium on streptavidin CM5 chip (500 RU; 550 RU for the ΔSite series; 1000 RU for NL3 and NL3 Arg451Cys in the R451C series); β-NRX1_(LNS6)(±4), MDGA1_(ECTO), MDGA2_(ECTO) injected, 15 concentrations, two-fold series from 50 μM; TBS-CTB (10 mM Tris pH 7.4, 150 mM NaCl, 3 mM CaCl2, 0.005% Tween-20, 1.0 g/L BSA); equilibrium analysis, 1:1 Langmuir model
# [3] = target: human NL1(–A+B)_(ECTO), immobilised for SPR (human); test: as above
# [4] = target: human NL3(–A)_(ECTO) (Gln38-Asp636), immobilised for SPR (human) (UniProt Q9NZ94); test: as above
# [5] = target: human NL1(–A–B)_(ECTO) (Gln46-Asp635), soluble protein for ITC and as SPR analyte (human); test: ITC; competition: β-NRX1_(LNS6)(–4) titrated into NL1_(ECTO) with an equimolar amount of MDGA1_(ECTO) in the cell; HBS-C, 295 K; apparent KD
# [6] = target: human NL1(–A–B)_(ECTO) (Gln46-Asp635), soluble protein for ITC and as SPR analyte (human); test: ITC; β-NRX1_(LNS6)(–4) in the syringe titrated into NL1_(ECTO) alone in the cell; HBS-C (10 mM HEPES pH 7.50, 150 mM NaCl, 3 mM CaCl2), 295 K; one binding site model
# human NL3(–A)_(ECTO) (Gln38-Asp636), immobilised for SPR (human), sequence (Q9NZ94 other isoform, or with tags, fused parts or gaps): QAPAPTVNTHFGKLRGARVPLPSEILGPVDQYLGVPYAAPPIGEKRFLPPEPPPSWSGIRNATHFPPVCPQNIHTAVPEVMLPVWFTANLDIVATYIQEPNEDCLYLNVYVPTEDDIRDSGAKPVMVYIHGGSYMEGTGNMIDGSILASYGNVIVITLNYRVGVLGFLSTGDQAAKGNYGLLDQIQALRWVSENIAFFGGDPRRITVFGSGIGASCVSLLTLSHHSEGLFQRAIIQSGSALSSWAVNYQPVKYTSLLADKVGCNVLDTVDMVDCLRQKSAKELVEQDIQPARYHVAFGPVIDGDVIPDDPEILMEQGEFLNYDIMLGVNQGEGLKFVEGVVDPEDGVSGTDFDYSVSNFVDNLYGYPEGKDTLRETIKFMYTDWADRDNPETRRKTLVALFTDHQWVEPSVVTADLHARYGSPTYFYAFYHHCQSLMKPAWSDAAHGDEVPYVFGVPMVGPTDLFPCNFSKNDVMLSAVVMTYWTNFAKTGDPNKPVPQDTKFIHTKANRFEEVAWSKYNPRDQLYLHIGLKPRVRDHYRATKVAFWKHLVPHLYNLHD
Kd [2] [nM],fold weaker than with NL1(–A–B) (ECTO) [3] [fold],Kd [4] [nM],"K (D,app) with an equimolar amount of MDGA1 (ECTO) [5] [µM]",Kd [6] [nM],Substance,stoichiometry N [1]
,,,,,"human NL1 cholinesterase domain lacking splice inserts (hNL1(–A–B)_(ECTO); Gln46-Asp635), crystallisation sample (domain or fragment)",2
718,< 2,8500,4.76,388,human β-neurexin-1 LNS6 domain lacking SS4 (β-NRX1_(LNS6)(–4); His85-Val265) (domain or fragment),
,< 2,,,,human β-neurexin-1 LNS6 domain with SS4 (β-NRX1_(LNS6)(+4)) (domain or fragment),
